B1: BLV1H12-GLP-1 fusion antibody (antibody, human IgG1)
heavy: not shown
light: QAVLNQPSSVSGSLGQRVSITCSGSSSNVGNGYVSWYQLIPGSAPRTLIYGDTSRASGVPDRFSGSRSGNTATLTISSLQAEDEADYFCASAEDSSSNAVFGSGTTLTVLGQPKSPPSVTLFPPSTEELNGNKATLVCLISDFYPGSVTVVWKADGSTITRNVETTRASKQSNSKYAASSYLSLTSSDWKSKGSYSCEVTHEGSTVTKTVKPSECS
B2: BLV1H12-Ex-4 fusion antibody (antibody, human IgG1)
heavy: not shown
light: B1 light
B3: BLV1H12-GLP-1 clip fusion antibody (antibody)
heavy: not shown
light: B1 light
modifications: cleaved by Factor Xa at the IEGR site in front of GLP-1, releasing the N-terminus of GLP-1

Biological target: GLP-1 receptor on HEK293 cells carrying a cAMP responsive luciferase reporter gene (UniProt P43220 24-463, limits assumed)
Test: cell-based or functional assay

Binder	RLU (cAMP responsive luciferase reporter) at 1.26953 nM [RLU]	RLU (cAMP responsive luciferase reporter) at 2.53906 nM [RLU]	RLU (cAMP responsive luciferase reporter) at 5.07813 nM [RLU]	RLU (cAMP responsive luciferase reporter) at 10.15625 nM [RLU]	RLU (cAMP responsive luciferase reporter) at 20.3125 nM [RLU]	RLU (cAMP responsive luciferase reporter) at 40.625 nM [RLU]	RLU (cAMP responsive luciferase reporter) at 81.25 nM [RLU]	RLU (cAMP responsive luciferase reporter) at 162.5 nM [RLU]	RLU (cAMP responsive luciferase reporter) at 325 nM [RLU]	RLU (cAMP responsive luciferase reporter) at 650 nM [RLU]
B1	18600	24500	43200	66600	105000	144000	151000	167000	171000	160000
B2	6120	6360	8500	10400	19300	28000	54800	90700	118000	135000
B3	4740	5800	4400	5200	7780	13600	33800	65800	101000	141000

Same assay, conditions: not given

Binder	RLU (cAMP responsive luciferase reporter) at 1300 nM [RLU]
B1	185000
B2	160000
B3	169000
